T1: His-tagged human HVEM (human, UniProt Q92956 39-202)
T1 construct: extracellular domain; also called His-tagged HVEM (Acro Biosystems); HVEM extracellular domain peptide; not shown: His tag
T1 sequence (looked up): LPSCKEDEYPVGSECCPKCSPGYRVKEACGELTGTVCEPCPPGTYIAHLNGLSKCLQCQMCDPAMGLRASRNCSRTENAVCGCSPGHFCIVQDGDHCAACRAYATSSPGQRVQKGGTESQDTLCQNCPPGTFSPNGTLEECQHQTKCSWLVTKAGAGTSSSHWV

T2: HVEM on HVEM-positive melanoma cells (UniProt Q92956 39-283, limits assumed)
T2 sequence (looked up): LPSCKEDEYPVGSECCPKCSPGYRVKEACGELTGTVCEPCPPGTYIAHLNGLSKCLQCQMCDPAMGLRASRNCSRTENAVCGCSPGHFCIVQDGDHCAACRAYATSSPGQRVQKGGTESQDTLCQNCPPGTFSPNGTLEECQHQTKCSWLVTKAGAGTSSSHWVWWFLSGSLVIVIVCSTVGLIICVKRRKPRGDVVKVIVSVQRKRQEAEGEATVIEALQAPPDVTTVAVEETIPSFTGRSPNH


Key:
His-tagged human HVEM [1] = biological target: T1, His-tagged human HVEM; assay: Biacore KD to HVEM extracellular domain, IgG captured on Protein A, His-tagged HVEM as analyte; reference: Parental
Experimental: Affinity maturation: To improve binding affinity, the parental antibody was affinity matured using phage display. Heavy and/or light chain CDRs of variable domain regions were semi-randomized using oligonucleotide mutagenesis. Selections were performed using separate heavy and light chain phage libraries and decreasing concentrations of biotinylated His-tagged HVEM target to select the highest affinity binders from each library. Following four rounds of selections individual clones were screened as scFv supematants in a binding ELISA to identify lead candidates with signals greater than the parental scFv expressed in the same assay. Identified hits were converted into IgG and cloned into mammalian expression vectors. Plasmids encoding the affinity improved variants paired with the appropriate parental heavy or light chain, as well as the parental antibody, were transiently transfected small scale into HEK EBNA adherent cells (LGC Standards, Teddington, UK). At five days post-transfection, the supernatants were harvested, quantified by Octet (serial no. FB-30203) and analysed by Biacore single cycle kinetics.
(§1) Single Cycle Kinetics: To assess the binding of the affinity matured IgGs, single cycle kinetic analysis was performed on supernatants using a Biacore T200 (serial no. 1909913). Kinetic experiments were performed at 25° C. running Biacore T200 Control software V2.0.1 and Evaluation software V3.0 (Cytiva, Marlborough, USA). Antibodies were diluted in HBS-P+(Cytiva, Marlborough, USA) containing 1 mg/ml BSA to a final concentration of 1.0 μg/ml. Antibodies were loaded onto Fc2, Fc3 and Fc4 of the Protein A capture Sensor chip (Cytiva, Marlborough, USA). IgGs were captured at a flow rate of 10 μl/min to give an immobilisation level (RL) of ˜50 RU. The surface was then allowed to stabilize. Single cycle kinetics data was obtained using His-tagged HVEM (Acro Biosystems, Newark, USA) as the analyte at a flow rate of 40 μl/min. A two-fold dilution range from […] to 100 nM His-tagged antigen without regeneration between each concentration was used.

His-tagged human HVEM [2] = biological target: T1, His-tagged human HVEM; assay: Biacore 8K multi-cycle kinetics, purified antibody captured on Protein A, His-tagged human HVEM as analyte, 25 C
Experimental: (§2) Multi-Cycle Kinetics: Multicycle kinetic analysis was performed on purified antibodies. Kinetic experiments were performed at 25° C. on a Biacore 8K. HBS-P+0.1% BSA (Cytiva, Marlborough, USA) was used as running buffer. Purified antibodies were diluted to 1.0 μg/mL in running buffer and at the start of each cycle, loaded onto Fc2, Fc3 and Fc4 of a Protein A sensor chip (Cytiva, Marlborough, USA). Antibodies were captured at a flow rate of 10 μl/min to give an immobilisation level (RL) of ˜ 100 RU. The surface was then allowed to stabilise. Multi-cycle kinetic data was obtained using His-tagged human HVEM as the analyte injected at a flow rate of 50 μl/min. A eight point, two-fold dilution range from 0.78 nM to 100 nM of antigen were prepared in running buffer. For each concentration, the association phases were monitored for 180 seconds and the dissociation phase was measured for 300 seconds. Regeneration of the sensor chip surface was conducted between cycles using two injections of 10 mM Glycine-HCl, pH 1.5.
(§3) First a multicycle kinetics Biacore affinity assay was performed to confirm the improved binding of the H4, T57A, T57G and T57N antibodies (FIG. 3A). Each purified antibody was captured to a Protein A sensor chip before increasing concentrations of antigen (hHVEM) were injected. The fold improvement in affinity was calculated by dividing the average KD of the parent antibody by the average KD for each variant antibody. […] A single-cycle kinetic Biacore assay was also performed with the H4 N55G, H4 N55S, H4 N55D, H4 N55Q, H4 N55E, and H4 T57E antibodies (FIG. 3B).

His-tagged human HVEM [3] = biological target: T1, His-tagged human HVEM; assay: Biacore 8K multi-cycle kinetics, purified antibody captured on Protein A, His-tagged human HVEM as analyte; reference: Parental
Experimental: as §2, §3

His-tagged human HVEM [4] = biological target: T1, His-tagged human HVEM; assay: Biacore T200 single-cycle kinetics, antibody supernatant captured on Protein A, His-tagged HVEM as analyte; reference: Parental
Experimental: as §1, §3

His-tagged human HVEM [5] = biological target: T1, His-tagged human HVEM; assay: Biacore T200 single-cycle kinetics, antibody supernatant captured on Protein A, His-tagged HVEM as analyte, 25 C
Experimental: as §1, §3

[6] = biological target: T2, HVEM on HVEM-positive melanoma cells; assay: cell-based or functional assay

Binder	Fold improvement vs parental (KD) (His-tagged human HVEM [1]) [fold]	Kd (His-tagged human HVEM [2]) [nM]	Fold improvement (KD parent / KD variant) (His-tagged human HVEM [3]) [fold]	Fold improvement (KD parent / KD variant) (His-tagged human HVEM [4]) [fold]	Kd (His-tagged human HVEM [5]) [nM]	increase in specific killing events (Caspase 3/7) in melanoma cells cocultured with autologous TILs, as compared to the isotype control, after nine hours [6] [%]
H4 (antibody, human IgG4 S228P, kappa, V domains shown, N-linked glycosylation site (NXS/T; NRT) in CDR-H2 found to be glycosylated in the final antibody (FIG. 1), also called H4-CDR2; H4 antibody) VH: QVQLVQSGGGLVQPGGSLRLSCAASGFTFSSYAMSWVRQAPGKGLEWVSNIYSNPNRTYYADSVEGRFTISRDNSKNTLYLQMNSLRAEDTAVYYCAKAPGDYTAYFDYWGQGTLVTVSS VL: not shown	9.57	4.65	14			
L18-H5 (antibody, human IgG4 S228P, kappa, V domains shown, combination of the L18 light chain and the H5 heavy chain; also called L18 (CDR3)-H5 (CDR2)) VH: QVQLVQSGGGLVQPGGSLRLSCAASGFTFSSYAMSWVRQAPGKGLEWVSNINGPGNGTYYADSVEGRFTISRDNSKNTLYLQMNSLRAEDTAVYYCAKAPGDYTAYFDYWGQGTLVTVSS VL: ELVLTQSPATLSLSPGERATLSCRASQSVSSYLAWYQQKPGQAPRLLIYGASSRATGIPDRFSGSGSGTDFTLTISRLEPEDFAVYYCQQYGSYPPLTFGQGTKVEIKR	1.51					
H4-N55S (antibody, human IgG4 S228P, kappa, V domains shown, H4 variant without the CDR-H2 glycosylation site; also called H4-N55S-CDR2) VH: QVQLVQSGGGLVQPGGSLRLSCAASGFTFSSYAMSWVRQAPGKGLEWVSNIYSNPSRTYYADSVEGRFTISRDNSKNTLYLQMNSLRAEDTAVYYCAKAPGDYTAYFDYWGQGTLVTVSS VL: not shown	2.67			2.67	21	
H4-T57E (antibody, human IgG4 S228P, kappa, V domains shown, H4 variant without the CDR-H2 glycosylation site; also called H4-T57E-CDR2) VH: QVQLVQSGGGLVQPGGSLRLSCAASGFTFSSYAMSWVRQAPGKGLEWVSNIYSNPNREYYADSVEGRFTISRDNSKNTLYLQMNSLRAEDTAVYYCAKAPGDYTAYFDYWGQGTLVTVSS VL: not shown	2.4			2.4	23.4	
H4-N55E (antibody, human IgG4 S228P, kappa, V domains shown, H4 variant without the CDR-H2 glycosylation site; also called H4-N55E-CDR2) VH: QVQLVQSGGGLVQPGGSLRLSCAASGFTFSSYAMSWVRQAPGKGLEWVSNIYSNPERTYYADSVEGRFTISRDNSKNTLYLQMNSLRAEDTAVYYCAKAPGDYTAYFDYWGQGTLVTVSS VL: not shown	2.73			2.73	20.6	
L18-H4 (antibody, human IgG4 S228P, kappa, V domains shown, combination of the L18 light chain and the H4 heavy chain; also called L18 (CDR3)-H4 (CDR2)) VH: QVQLVQSGGGLVQPGGSLRLSCAASGFTFSSYAMSWVRQAPGKGLEWVSNIYSNPNRTYYADSVEGRFTISRDNSKNTLYLQMNSLRAEDTAVYYCAKAPGDYTAYFDYWGQGTLVTVSS VL: ELVLTQSPATLSLSPGERATLSCRASQSVSSYLAWYQQKPGQAPRLLIYGASSRATGIPDRFSGSGSGTDFTLTISRLEPEDFAVYYCQQYGSYPPLTFGQGTKVEIKR	2.57					
H5 (antibody, human IgG4 S228P, kappa, V domains shown, also called H5-CDR2) VH: QVQLVQSGGGLVQPGGSLRLSCAASGFTFSSYAMSWVRQAPGKGLEWVSNINGPGNGTYYADSVEGRFTISRDNSKNTLYLQMNSLRAEDTAVYYCAKAPGDYTAYFDYWGQGTLVTVSS VL: not shown	5.05					
L18 (antibody, human IgG4 S228P, kappa, V domains shown, also called L18 (CDR3)) VH: not shown VL: ELVLTQSPATLSLSPGERATLSCRASQSVSSYLAWYQQKPGQAPRLLIYGASSRATGIPDRFSGSGSGTDFTLTISRLEPEDFAVYYCQQYGSYPPLTFGQGTKVEIKR	1					
H8 (antibody, human IgG4 S228P, kappa, V domains shown, also called H8-CDR2) VH: QVQLVQSGGGLVQPGGSLRLSCAASGFTFSSYAMSWVRQAPGKGLEWVSAIGGSGSGTYYADSVKGRFTISRDNSKNTLYLQMNSLRAEDTAVYYCAKAPGDYTAYFDYWGQGTLVTVSS VL: not shown	1.3					
H4-E64K (antibody, human IgG4 S228P, kappa, V domains shown, also called H4-E64K-CDR2) VH: QVQLVQSGGGLVQPGGSLRLSCAASGFTFSSYAMSWVRQAPGKGLEWVSNIYSNPNRTYYADSVKGRFTISRDNSKNTLYLQMNSLRAEDTAVYYCAKAPGDYTAYFDYWGQGTLVTVSS VL: not shown	2.15					
H6 (antibody, human IgG4 S228P, kappa, V domains shown, also called H6-CDR2) VH: QVQLVQSGGGLVQPGGSLRLSCAASGFTFSSYAMSWVRQAPGKGLEWVSGINGNGDYTYYADSVKGRFTISRDNSKNTLYLQMNSLRAEDTAVYYCAKAPGDYTAYFDYWGQGTLVTVSS VL: not shown	1.53					
H4-T57G (antibody, human IgG4 S228P, kappa, V domains shown, H4 variant without the CDR-H2 glycosylation site; also called H4-T57G-CDR2) VH: QVQLVQSGGGLVQPGGSLRLSCAASGFTFSSYAMSWVRQAPGKGLEWVSNIYSNPNRGYYADSVEGRFTISRDNSKNTLYLQMNSLRAEDTAVYYCAKAPGDYTAYFDYWGQGTLVTVSS VL: not shown	6.24	7.27	8.97			19
H4-N55Q (antibody, human IgG4 S228P, kappa, V domains shown, H4 variant without the CDR-H2 glycosylation site; also called H4-N55Q-CDR2) VH: QVQLVQSGGGLVQPGGSLRLSCAASGFTFSSYAMSWVRQAPGKGLEWVSNIYSNPQRTYYADSVEGRFTISRDNSKNTLYLQMNSLRAEDTAVYYCAKAPGDYTAYFDYWGQGTLVTVSS VL: not shown	2.59			2.59	21.7	
Par-K64E (antibody, human IgG4 S228P, kappa, V domains shown, also called Parental-K64E-VH-CDR2; Par-K64E antibody) VH: QVQLVQSGGGLVQPGGSLRLSCAASGFTFSSYAMSWVRQAPGKGLEWVSAISGSGGSTYYADSVEGRFTISRDNSKNTLYLQMNSLRAEDTAVYYCAKAPGDYTAYFDYWGQGTLVTVSS VL: not shown	3.14					
H4-N55D (antibody, human IgG4 S228P, kappa, V domains shown, H4 variant without the CDR-H2 glycosylation site; also called H4-N55D-CDR2) VH: QVQLVQSGGGLVQPGGSLRLSCAASGFTFSSYAMSWVRQAPGKGLEWVSNIYSNPDRTYYADSVEGRFTISRDNSKNTLYLQMNSLRAEDTAVYYCAKAPGDYTAYFDYWGQGTLVTVSS VL: not shown	3.93			3.93	14.3	
H4-N55G (antibody, human IgG4 S228P, kappa, V domains shown, H4 variant without the CDR-H2 glycosylation site; also called H4-N55G-CDR2) VH: QVQLVQSGGGLVQPGGSLRLSCAASGFTFSSYAMSWVRQAPGKGLEWVSNIYSNPGRTYYADSVEGRFTISRDNSKNTLYLQMNSLRAEDTAVYYCAKAPGDYTAYFDYWGQGTLVTVSS VL: not shown	4.29			4.29	13.1	
H4-T57N (antibody, human IgG4 S228P, kappa, V domains shown, H4 variant without the CDR-H2 glycosylation site; also called H4-T57N-CDR2) VH: QVQLVQSGGGLVQPGGSLRLSCAASGFTFSSYAMSWVRQAPGKGLEWVSNIYSNPNRNYYADSVEGRFTISRDNSKNTLYLQMNSLRAEDTAVYYCAKAPGDYTAYFDYWGQGTLVTVSS VL: not shown	23.5	1.94	33.6			9
